Results on 18 sequences are retold here after the DeepSol protein solubility set.

This data set is described as follows: soluble on expression in E. coli; label from the status in PepcDB or PDB records.
As to “MSLGAFLDKPKTEKHNAHGAGNGLRYGLSSMQGWRVEMEDAHTAVVGIPHGLEDWSFFAVYDGHAGSRVANYCSTHLLEHITTNEDFRAAGKSGSALELSVENVKNGIRTGFLKIDEYMRNFSDLRNGMDRSGSTAVGVMISPKHIYFINCGDSRAVLYRNGQVCFSTQDHKPCNPREKERIQNAGGSVMIQRVNGSLAVSRALGDYDYKCVDGKGPTEQLVSPEPEVYEILRAEEDEFIILACDGIWDVMSNEELCEYVKSRLEVSDDLENVCNWVVDTCLHKGSRDNMSIVLVCFSNAPKVSDEAVKKDSELDKHLESRVEEIMEKSGEEGMPDLAHVMRILSAENIPNLPPGGGLAGKRNVIEAVYSRLNPHRESDGGAGDLEDEGHHHHHH”, the “soluble on expression in E. coli” value was “soluble”.

Consider “MTQATPFQLPPLALYVHIPWCVRKCPYCDFNSHAAGPELPEEAYVDALLADLEQDLRHVHGRRLGSIFFGGGTPSLFSAKALGRLLEGVERRVGFADGIEITLEANPGTFEQVKFADYRRLGINRLSIGVQSFQADKLQALGRIHDGAEAVRAADMARQAGFDNFNLDLMHGLPGQSLDDALADLRQALALAPTHLSWYQLTMEPNTVFWSQPPELPEDDILWDIQEAGQALLDEHGYRQYETSAYARDGLRARHNLNYWSFGDFLGIGAGAHAKLSAPDGRIVRTWKTRLPKDYLNPQKAFQAGERPLEAADLPFEFMMNVLRLVDGVPAALYPQRTGQPLAAIADACAAARDAGLLADDPQHLRPSERGQLFLNDLLQHFLP”, for which the “soluble on expression in E. coli” value is reported as “not soluble”.

As for “MSETVSVESSVDSNINQDVNIRATYLGAHELKLAASLLYQAYHDDPVFLDIFKSDKEDYEQRLRGAIREELNAFWQAKQPMIGLYLGEAMVGVACINSPDETLASDRFWHWRLKMLLNAGYFSTKQMMQKEHTVLAAVPLKIFHFLSFIAVHPLHQQHGFGHYLMAAVNTVLDEHPDSEGVAVYATSGKFKEFFKQVDYHTVKEVTVGNVCGSVMVHYRDKEE”, the “soluble on expression in E. coli” value is reported as “soluble”.

For “SKEGSVAPKERINIKYIPATGDAQAEVELPLKTLVVGDFKGHAEQTPLEERATVTVDKNNFEAVMRESELKITATVKNKLTDDENAELPVELNFKSLADFAPDAVASQVPELKKLIELREALVALKGPLGNIPAFRERLQSLLNSEESREKLLAELNLL”, the “soluble on expression in E. coli” value is “not soluble”.

On to “MLPFFKELQTCTEMLEKNPQDATALFQKAVLLYKARRFEAALQLIEQVLEIVPDDFRVWYNRGVVLSEMGRLEDALAAYDRVIELEPVFEMAWDNKGVVLARLGRFEEALETYEKVLLRNPKYAEAWAGKGSVLSALDRKEEALEAYLSALKIRPDYLEALKSVGSLFSRLGRYEEALAAYDTALQAAPEAPELWAGRGLVLSELDRQEEALQSCSRALELKPGFAPALEVKVKILSEIGRQKARASQLEHHHHHH”, for which the “soluble on expression in E. coli” value is recorded as “soluble”.

In the case of “MGSDKIHHHHHHVTLDQLLMFRTVAEAGSLKAASNKLHKTQPAISQSIKQLESQLDLILFNREGYRLAITEQGRKLLQHTLRVLNEAQEMKQVAKHLAKGNEASITLAFEASFNLARILPILELTQNEFPYTQIILKQEFLTGALEALNQDKAEIIISAGGIEPIRSSHLELAYLFSGSLLDVAAPRLLSRYPNLSHVRELVNEYQIVIQDTGTGTANIEFGVQAGQRRWYVNDFYTKKMLIQSGMGWGKLPHYMIEDSLKQGALIALDLRERQNNIQLDYYVMRKPHSPLGPVAQALWQKLIAFSLS”, the “soluble on expression in E. coli” value was “not soluble”.

With “MSLKNNSEVFNVLHFSDIHIQLRYNVGAEANCTNLPCGAPDSYNKQLLPSSYNFSSYYQHFSPNVAKMEFSFYPDAHYDENSQYIKGDYYDFPLYRGWNFKNAPATSFGGYLTDSPAVLMNSSLISMAKMHKEKNFEFAIFTGDVVDHLLLSCTPEYTKEEEVKSFKAMKFFFNNLTVLPALGNHETGEYGQLSPIAYDFNGSYSWNQDEMVDLWINNEWFPAKDRYDLKSHYAGFSYVTNRGLKVIGLNSNAYYQKNLWSYIDLSTNPDLFGQWEFLVNELIESEEKGQRVWIMAHIPTTDYDTLPLQSRIFGKIVERFSPYTIANIFFAHTHMDQTHILYSTNSSKEAEDIINMSWVMQSVTPLANYNPSWRYYEVENESFNIINSFNYMTKLNDTFVNGGEEPVWEFEYSARELYDPKKTWPERAPLNATFWHKYVFERLRNESDIEFNQQYSNIRYREGHHHHHH”, the “soluble on expression in E. coli” value was “not soluble”.

As to “MTAPTAHDYDVVIIGGGPAGLTAAIYTGRAQLSTLILEKGMPGGQIAWSEEVENFPGFPEPIAGMELAQRMHQQAEKFGAKVEMDEVQGVQHDATSHPYPFTVRGYNGEYRAKAVILATGADPRKLGIPGEDNFWGKGVSTCATCDGFFYKGKKVVVIGGGDAAVEEGMFLTKFADEVTVIHRRDTLRANKVAQARAFANPKMKFIWDTAVEEIQGADSVSGVKLRNLKTGEVSELATDGVFIFIGHVPNTAFVKDTVSLRDDGYVDVRDEIYTNIPMLFAAGDVSDYIYRQLATSVGAGTRAAMMTERQLAALEVEGEEVTAAD”, the “soluble on expression in E. coli” value is “soluble”.

For the sequence “SLIDMGDYTLKELETWNEKIEGIVNEMGLNYYNQEFEIISYNGMLEAEAYTGMPSRYPHWSYGKAYEKQKTLYGYDLVGLPYEMVINSNPCIAYLMKENTLLLQILTMAHVYGHNDFFKNNRLFREGTDASETVNMFKNDADTIRNYIDNPAIGNEKVEKILDAAHAIRYQTHRVIGEKRLSYEEIRNKIIQDYNSSYKPRSIIEPYEKPVEPDLSKIPLEPEDDIIYFIENYGNLQEWERNVIEIVRRETAYFIPQIETKIMNEGWASFWHYTILNELKLPDGLHLEFLKRHNDVLSPILGSLNPYYLGFKILKDIEDRYGRDKIFEVREIERDESFIRKYLTRELCEELNLFEFSKRRGEYIIDNVADEEGWKNIRNSICSGCGMNSIPVIRVVELSKKDNNLILEHLYDGRELNMQYAEETLKYVVNLWKGKVTLKTTIEGKEYRIVCDENKKICEVK”, the “soluble on expression in E. coli” value is “soluble”.

Turning to “MTKPMIQIALDQTNLTDAVAVASNVASYVDVIEVGTILAFAEGMKAVSTLRHNHPNHILVCDMKTTDGGAILSRMAFEAGADWITVSAAAHIATIAACKKVADELNGEIQIEIYGNWTMQDAKAWVDLGITQAIYHRSRDAELAGIGWTTDDLDKMRQLSALGIELSITGGIVPEDIYLFEGIKTKTFIAGRALAGAEGQQTAAALREQIDRFWP”, the “soluble on expression in E. coli” value is recorded as “not soluble”.

For the sequence “MSAPAAAPKHPGKVFLDPSEVADHLAEYRIVDCRYSLKIKDHGSIQYAKEHVKSAIRADVDTNLSKLVPTSTARHPLPPCAEFIDWCMANGMAGELPVLCYDDECGAMGGCRLWWMLNSLGADAYVINGGFQACKAAGLEMESGEPSSLPRPATHWPFKTAFQHHYLVDEIPPQAIITDARSADRFASTVRPYAADKMPGHIEGARNLPYTSHLVTRGDGKVLRSEEEIRHNIMTVVQGAGDAADLSSFVFSCGSGVTACINIALVHHLGLGHPYLYCGSWSEYSGLFRPPIMRSIIDDYGMCMQMQTPSLGDNPKANLDTMTLKVDGAPCERPDAEVQSAATHLHAGEAATVYFKSGRVVTIEVPVVPNLEA”, the “soluble on expression in E. coli” value is “soluble”.

As for “RRRRPSSSRRLRGRGAAQMACPALGLEALQPLQPEPPPEPAFSEAQKWIEQVTGRSFGDKDFRTGLENGILLCELLNAIKPGLVKKINRLPTPIAGLDNIILFLRGCKELGLKESQLFDPSDLQDTSNRVTVKSLDYSRKLKNVLVTIYWLGKAANSCTSYSGTTLNLKEFEGLLAQMRKDTDDIESPKRSIRDSGYIDCWDSERSDSLSPPRHGRDDSFDSLDSFGSRSRQTPSPDVVLRGSSDGRGSDSESDLPHRKLPDVKKDDMSARRTSHGEPKSAVPFNQYLPNKSNQTAYVPAPLRKKKAEREEYRKSWSTATSPLGGERPFRYGPRTPVSDDAESTSMFDMRCEEEAAVQPHSRARQEQLQLINNQLREEDDKWQDDLARWKSRRRSVSQDLIKKEEERKKMEKLLAGEDGTSERRKSIKTYREIVQEKERRERELHEAYKNARSQEEAEGILQQYIERFTISEAVLERLEMPKILERSHSTEPNLSSFLNDPNPMKYLRQQSLPPPKFTATVETTIARASVLDTSMSAGSGSPSKTVTPKAVPMLTPKPYSQPKNSQDVLKTFKVDGKVSVNGETVHREEEKERECPTVAPAHSLTKSQMFEGVARVHGSPLELKQDNGSIEINIKKPNSVPQELAATTEKTEPNSQEDKNDGGKSRKGNIELASSEPQHFTTTVTRCSPTVAFVEFPSSPQLKNDVSEEKDQKKPENEMSGKVELVLSQKVVKPKSPEPEATLTFPFLDKMPEANQLHLPNLNSQVDSPSSEKSPVTTPQFKFWAWDPEEERRRQEKWQQEQERLLQERYQKEQDKLKEEWEKAQKEVEEEERRYYEEERKIIEDTVVPFTVSSSSADQLSTSSSMTEGSGTMNKIDLGNCQDEKQDRRWKKSFQGDDSDLLLKTRESDRLEEKGSLTEGALAHSGNPVSKGVHEDHQLDTEAGAPHCGTNPQLAQDPSQNQQTSNPTHSSEDVKPKTLPLDKSINHQIESPSERRKKSPREHFQAGPFSPCSPTPPGQSPNRSISGKKLCSSCGLPLGKGAAMIIETLNLYFHIQCFRCGICKGQLGDAVSGTDVRIRNGLLNCNDCYMRSRSAGQPTTL”, the “soluble on expression in E. coli” value is “soluble”.

As for “SKTNPRLSSLIADLKSAARSSGGAVWGDVAERLEKPRRTHAEVNLGRIERYAQEDETVVVPGKVLGSGVLQKDVTVAAVDFSGTAETKIDQVGEAVSLEQAIENNPEGSHVRVIR”, the “soluble on expression in E. coli” value is reported as “soluble”.

As for “MDNEKGLLIVLSGPSGVGKGTVRKRIFEDPSTSYKYSISMTTRQMREGEVDGVDYFFKTRDAFEALIKDDQFIEYAEYVGNYYGTPVQYVKDTMDEGHDVFLEIEVEGAKQVRKKFPDALFIFLAPPSLEHLRERLVGRGTESDEKIQSRINEARKEVEMMNLYDYVVVNDEVELAKNRIQCIVEAEHLKRERVEAKYRKMILEAKK”, the “soluble on expression in E. coli” value is “soluble”.

Consider “MENPMNTDHTKRNLFELYAELIHQQEKWEGLIKAFLSDELRKLDVEHGSKSQLTMTEIHVLSCVGDNEPINVTSIAEKMNTTKATVSRISTKLLGAGFLHRTQLSDNKKEVYFRLTPAGKKLHSLHKYYHQKAEQRFLSFFDRYTEEEILFAERLFRDLVTKWYPSSEEIEGGLPSIFK”, for which the “soluble on expression in E. coli” value is on record as “not soluble”.

In the case of “MSLDIEQQFLNDLDNQLWRAADKLRSNLDAANYKHVVLGLIFLKYVSDAFEERQQELTELFQKDDDDNIYYLPREDYDSDEAYQQAIAEELEIGDYYTEKNVFWVPKTARWNKLRDVITLPTGSVIWQDEQGEDVKLRSVSWLIDNAFDDIEKANPKLKGILNRISQYQLDADKLIGLINEFSLTSFNNPEYNGEKLNLKSKDILGHVYEYFLGQFALAEGKQGGQYYTPKSIVTLIVEMLEPYKGRVYDPAMGSGGFFVSSDKFIEKHANVKHYNASEQKKQISVYGQESNPTTWKLAAMNMVIRGIDFNFGKKNADSFLDDQHPDLRADFVMTNPPFNMKDWWHEKLADDPRWTINTNGEKRILTPPTGNANFAWMLHMLYHLAPTGSMALLLANGSMSSNTNNEGEIRKTLVEQDLVECMVALPGQLFTNTQIPACIWFLTKDKNAKNGKRDRRGQVLFIDARKLGYMKDRVLRDFKDEDIQKLADTFHNWQQEWSEENNQAGFCFSADLALIRKNDFVLTPGRYVGAEAEEDEGHHHHHH”, the “soluble on expression in E. coli” value is “soluble”.

For the sequence “LGQTTERYKSVIESMIEGIIIIDLEGKIIDHNKAATQIIGYEDLVLIGNDFSLGPGEAIREDETKFPFEEFPGIKTLRTGMPYKNVILGWIIPGKDTIWLSINSEPVKNENGEQVAVVCSYSDVT”, the “soluble on expression in E. coli” value is on record as “not soluble”.

With “MGSDKIHHHHHHMGKVLFVSGIDTDIGKSVATGYYARYLMQLGYSVITQKMVQTGCCDISSDILIHRKIQGVELADEDRKGETCCYLFDYPCSPYLAACLQNTYIDEKTIEKYTALLAQKYDYVLLEGAGGLMVPYAEGKTTLDYITAHNYPLILVTSGRLGSINHTLLSLEVCAHQNINVDTLIYNLYPPTDKLITQDTQQYFKSYLAKRFPTTKFMLMQKIDF”, the “soluble on expression in E. coli” value is “not soluble”.
